In paper PMC6370294 (Journal of biological inorganic chemistry : JBIC : a …, 2018) one finds Kd and specific activity data, which are given here for two molecules.

Test [1] concerns the target XoxF from Methylomicrobium buryatense 5GB1C (Methylomicrobium buryatense 5GB1C). The experiment in a line: BLI. A general note: BLI is a label-free optical method that tracks binding on a fibre tip over time.
The target of test [2] is T1, 5G-XoxF (Methylotuvimicrobium buryatense, UniProt A0A3F2YLY8).
T1 sequence (A0A3F2YLY8 27-617): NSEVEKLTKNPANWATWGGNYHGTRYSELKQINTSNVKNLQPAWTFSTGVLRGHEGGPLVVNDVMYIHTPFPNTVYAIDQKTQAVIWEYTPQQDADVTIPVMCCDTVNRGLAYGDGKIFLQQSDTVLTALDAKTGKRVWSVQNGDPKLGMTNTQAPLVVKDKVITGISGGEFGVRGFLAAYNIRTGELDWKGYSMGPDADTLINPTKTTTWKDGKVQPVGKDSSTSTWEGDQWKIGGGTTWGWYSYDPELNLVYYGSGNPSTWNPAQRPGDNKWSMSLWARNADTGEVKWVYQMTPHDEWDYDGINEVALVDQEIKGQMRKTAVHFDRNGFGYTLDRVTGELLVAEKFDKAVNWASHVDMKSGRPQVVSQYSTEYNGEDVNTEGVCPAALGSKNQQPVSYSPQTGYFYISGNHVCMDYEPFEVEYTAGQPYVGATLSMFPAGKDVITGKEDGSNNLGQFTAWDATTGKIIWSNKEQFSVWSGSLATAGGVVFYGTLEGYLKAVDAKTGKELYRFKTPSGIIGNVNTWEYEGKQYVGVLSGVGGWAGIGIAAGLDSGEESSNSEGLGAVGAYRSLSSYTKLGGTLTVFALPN
The experiment in a line: DCPIP dye-linked dehydrogenase assay, A600. Format: biochemical. The conditions noted are these: PMS mediator, DCPIP acceptor; La(III) enzyme; 30 °C; 1.5 μM enzyme.

One may read the Kd as the concentration at which binding is half-saturated. High values mean lower affinity, low ones higher affinity.

“particulate methane monooxygenase from Methylomicrobium buryatense 5GB1C (complex)” returned a Kd in test [1] of 50 µM. Turning to `CO` [methanol], the specific activity entry in test [2] is on record as “Purified 5G-XoxF exhibits methanol oxidation activity”.
